Data reported in article PMC12311796.

Assays:
[1] = biological target: T1, BRD4 N-terminal tandem bromodomain fragment (BD1-BD2) (Homo sapiens, UniProt O60885 49-460); assay: SPR; SPR: 10 mM HEPES pH 7.4, 150 mM NaCl, 50 uM EDTA, 0.005% P20, 24 C; MST: PBS, 0.05% Tween-20, 22 C; NMR: 20 mM Na-phosphate pH 7.5, 80 mM KCl, 5% D2O, 25 C; nucleosome: 20 mM Tris-HCl pH 8.0, NaCl 2 M to 250 mM; conditions: protein: recombinant; tags: N-terminal His8 (RED-tris-NTA label for MST; Ni-NTA capture for SPR); parallel 3-quartet G4; unimolecular fraction about 50% in the NMR sample
[2] = biological target: T1, BRD4 N-terminal tandem bromodomain …; assay: NMR; 80 mM KCl; 1:2 BRD4:G4 model; SPR: 10 mM HEPES pH 7.4, 150 mM NaCl, 50 uM EDTA, 0.005% P20, 24 C; MST: PBS, 0.05% Tween-20, 22 C; NMR: 20 mM Na-phosphate pH 7.5, 80 mM KCl, 5% D2O, 25 C; nucleosome: 20 mM Tris-HCl pH 8.0, NaCl 2 M to 250 mM; conditions: protein: recombinant; tags: N-terminal His8 (RED-tris-NTA label for MST; Ni-NTA capture for SPR); parallel 3-quartet G4; unimolecular fraction about 50% in the NMR sample
[3] = biological target: T1, BRD4 N-terminal tandem bromodomain …; assay: SPR; no ligand; SPR: 10 mM HEPES pH 7.4, 150 mM NaCl, 50 uM EDTA, 0.005% P20, 24 C; MST: PBS, 0.05% Tween-20, 22 C; NMR: 20 mM Na-phosphate pH 7.5, 80 mM KCl, 5% D2O, 25 C; nucleosome: 20 mM Tris-HCl pH 8.0, NaCl 2 M to 250 mM; conditions: protein: recombinant; tags: N-terminal His8 (RED-tris-NTA label for MST; Ni-NTA capture for SPR); duplex flanks around G4 with opposing C-rich strand; about 50% G4 folded without PDS
[4] = biological target: T1, BRD4 N-terminal tandem bromodomain …; assay: SPR; 1-200 uM ODN; SPR: 10 mM HEPES pH 7.4, 150 mM NaCl, 50 uM EDTA, 0.005% P20, 24 C; MST: PBS, 0.05% Tween-20, 22 C; NMR: 20 mM Na-phosphate pH 7.5, 80 mM KCl, 5% D2O, 25 C; nucleosome: 20 mM Tris-HCl pH 8.0, NaCl 2 M to 250 mM; conditions: protein: recombinant, tags: N-terminal His8 (RED-tris-NTA label for MST; Ni-NTA capture for SPR)

## GGGAGGGAGGGAGGG (structured_DNA) [G4 (SE G4)]
[1]
  Kd: 5 ± 3 µM
[2]
  Kd: 6 ± 1 µM

B1: dsG4 (mixed)
DNA 1: ATCACACTTGGCAGGGAGGGAGGGAGGGATGCAGCTGATCA
DNA 2: TGATCAGCTGCATCCCTCCCTCCCTCCCTGCCAAGTGTGAT
[3]
  Kd: 5 ± 3 µM

## CAATCGGATCGAATTCGATCCGATTG (structured_DNA) [ds26]
[4]; hairpin
  binding result: no binding

## CCCCCTCCCCCTCCCCCTCCCCC (structured_DNA) [iM]
[4]; i-motif
  binding result: no binding

B2: dsCntr (dsDNA)
DNA 1: ATCACACTTGGCTTTCAACCAGTCTATGCTGCAGCTGATCA
DNA 2: TGATCAGCTGCAGCATAGACTGGTTGAAAGCCAAGTGTGAT
[4]; blunt
  binding result: no binding
